According to US20250382622A1 (UNIVERSIT T BERN, published 2025):

Target: T1, human Claudin-3 (human, UniProt O15551 1-220)
T1 sequence: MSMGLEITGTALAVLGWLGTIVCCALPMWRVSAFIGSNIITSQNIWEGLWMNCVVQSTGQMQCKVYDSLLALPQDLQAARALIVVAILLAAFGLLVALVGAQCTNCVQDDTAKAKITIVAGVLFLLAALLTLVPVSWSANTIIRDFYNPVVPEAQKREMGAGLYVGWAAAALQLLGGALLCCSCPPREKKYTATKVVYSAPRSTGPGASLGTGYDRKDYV
Experiment: cell-based or functional assay

B1: GalNAc functionalized UB-VS003 (antibody, mouse IgG2a, kappa, V domains shown)
VH: EVQLQQSGPELVKPGGSMKISCKASGYSFTGYTMNWVKQSHGKNLEWIGLINPYNDGTNYNQKFKGKATLTVDKSSSTAYMELLSLTSEDSAVYYCSKKGGGYGGTWFAYWGQGTLVTVSA
VL: DIVMSQSPSSLAVSVGEKVTMSCKSSPSLLYSNNQKNYLAWYQQKPGQSPKLLIYWASTRESGVPDRFTGSGSGTDFTLTISSVKAEDLAVYYCQQYYSFPYTFGGGTKLEIKR
modifications: reacted with 25 equivalents of DBCO-PEG4-NHS, then with 100 equivalents of Trebler GalNAc-Azide; modified residues and chain not stated
  claudin-3/beta-actin ratio by western blot, human hepatocytes, 24 h, 1 nM antibody: ~45 % of control
  claudin-3/beta-actin ratio by western blot, human hepatocytes, 24 h, 30 nM antibody: ~30 % of control
  claudin-3/beta-actin ratio by western blot, human hepatocytes, 24 h, 100 nM antibody: ~10 % of control
